# Earlier results as cited in publication PMC5578180.
# System: His193
# Assay: kinetics
# Details: folded, green (pre-photoconversion) state of LEA under illumination
substance,measurement,value
"Least Evolved Ancestor (LEA), ancestral reconstructed green-to-red photoconvertible GFP-like fluorescent protein (synthetic construct (ancestral gene reconstruction of Faviina coral GFP-like proteins; lineage of the great star coral, printed as Monastrea cavernosa); A60V;Q62H;T69A;D74H;T104R;S105N;Y116N;M154T;V157I;R194C;R216H;del217;L219G)",pKa,7.5
